Experimental data from paper doi:10.1101/2025.08.13.670075.

Biological target: proteasome with HTBH-tagged 20S subunit PSMB2 (human (expressed in HEK293) | human (endogenous in HEK293T)) (UniProt P49721)
Assay: affinity purification with mass spectrometry

UniProt P49721, sequence (P49721 whole entry, looked up, tested part not stated): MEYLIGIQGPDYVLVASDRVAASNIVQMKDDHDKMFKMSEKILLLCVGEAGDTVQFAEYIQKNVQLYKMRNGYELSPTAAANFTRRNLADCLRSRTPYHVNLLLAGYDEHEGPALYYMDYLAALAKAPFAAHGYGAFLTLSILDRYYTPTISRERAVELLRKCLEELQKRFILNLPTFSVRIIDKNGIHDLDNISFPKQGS

fold change of USP15 content on proteasomes, MG132-treated over untreated cells: > 4 fold
B1: USP15 (endogenous, HEK293T or HeLa cells) (enzyme)
chain: MAEGGAADLDTQRSDIATLLKTSLRKGDTWYLVDSRWFKQWKKYVGFDSWDKYQMGDQNVYPGPIDNSGLLKDGDAQSLKEHLIDELDYILLPTEGWNKLVSWYTLMEGQEPIARKVVEQGMFVKHCKVEVYLTELKLCENGNMNNVVTRRFSKADTIDTIEKEIRKIFSIPDEKETRLWNKYMSNTFEPLNKPDSTIQDAGLYQGQVLVIEQKNEDGTWPRGPSTPKSPGASNFSTLPKISPSSLSNNYNNMNNRNVKNSNYCLPSYTAYKNYDYSEPGRNNEQPGLCGLSNLGNTCFMNSAIQCLSNTPPLTEYFLNDKYQEELNFDNPLGMRGEIAKSYAELIKQMWSGKFSYVTPRAFKTQVGRFAPQFSGYQQQDCQELLAFLLDGLHEDLNRIRKKPYIQLKDADGRPDKVVAEEAWENHLKRNDSIIVDIFHGLFKSTLVCPECAKISVTFDPFCYLTLPLPMKKERTLEVYLVRMDPLTKPMQYKVVVPKIGNILDLCTALSALSGIPADKMIVTDIYNHRFHRIFAMDENLSSIMERDDIYVFEININRTEDTEHVIIPVCLREKFRHSSYTHHTGSSLFGQPFLMAVPRNNTEDKLYNLLLLRMCRYVKISTETEETEGSLHCCKDQNINGNGPNGIHEEGSPSEMETDEPDDESSQDQELPSENENSQSEDSVGGDNDSENGLCTEDTCKGQLTGHKKRLFTFQFNNLGNTDINYIKDDTRHIRFDDRQLRLDERSFLALDWDPDLKKRYFDENAAEDFEKHESVEYKPPKKPFVKLKDCIELFTTKEKLGAEDPWYCPNCKEHQQATKKLDLWSLPPVLVVHLKRFSYSRYMRDKLDTLVDFPINDLDMSEFLINPNAGPCRYNLIAVSNHYGGMGGGHYTAFAKNKDDGKWYYFDDSSVSTASEDQIVSKAAYVLFYQRQDTFSGTGFFPLDRETKGASAATGIPLESDEDSNDNDNDIENENCMHTN
